Literature values as cited in PMC4740375.
Read-outs that look alike come from different tables or passages of the source.

Tests used:
CD28 (Homo sapiens) [1] = target: CD28 (Homo sapiens) (UniProt P10747)
CD28 (Homo sapiens) [2] = target: CD28 (Homo sapiens) (UniProt P10747); remark: listed apart in the source

Substance	Kd (CD28 (Homo sapiens) [1])	Kd (CD28 (Homo sapiens) [2])
CD80 (from UniProt P33681)	4 µM	–
CD86 (from UniProt P42081)	–	20 µM
